To fix the notation:
B1: Unconventional myosin-Ie, residues 1051 to 1108; numbered along this chain, Q12965 (parent)
chain: PQVPQCKALYAYDAQDTDELSFNANDIIDIIKEDPSGWWTGRLRGKQGLFPNNYVTKI

± gives the uncertainty stated by the source.

Variants of B1 are the subject of this data set. The data set can be described thus: abundance fitness (aPCA) (normalised: wild type 0, dead -1); higher = more abundant; growth selection in yeast, the domain comes from the species named. To be noted: Homo sapiens.
With PQVPQCKALYAYDAQDTDELSFNAKDIIDIIKEDPSGWWTGRLRGKQGLFPNNYVTKI, the abundance fitness is -0.198 ± 0.064.
For the variant PQVPQCKALYAYDAQDTDELSFNAMDIIDIIKEDPSGWWTGRLRGKQGLFPNNYVTKI, the abundance fitness is -0.151 ± 0.051.
The result for PQVPQCKALYAYDAQDTDELSFNAYDIIDIIKEDPSGWWTGRLRGKQGLFPNNYVTKI reads -0.541 ± 0.11; that for PQVPQCKALYAYDAQDTDELSFNATDIIDIIKEDPSGWWTGRLRGKQGLFPNNYVTKI, -0.215 ± 0.065.
PQVPQCKALYAYDAQDTDELSFNAVDIIDIIKEDPSGWWTGRLRGKQGLFPNNYVTKI: the abundance fitness was -0.753 ± 0.073.
As to PQVPQCKALYAYDAQDTDELSFNAIDIIDIIKEDPSGWWTGRLRGKQGLFPNNYVTKI, the abundance fitness is -0.833 ± 0.075.
In the case of PQVPQCKALYAYDAQDTDELSFNASDIIDIIKEDPSGWWTGRLRGKQGLFPNNYVTKI, the abundance fitness was -0.088 ± 0.038.
With PQVPQCKALYAYDAQDTDELSFNAEDIIDIIKEDPSGWWTGRLRGKQGLFPNNYVTKI, the abundance fitness is -0.117 ± 0.064.
Turning to PQVPQCKALYAYDAQDTDELSFNADDIIDIIKEDPSGWWTGRLRGKQGLFPNNYVTKI, the abundance fitness is -0.048 ± 0.068.
In the case of PQVPQCKALYAYDAQDTDELSFNAHDIIDIIKEDPSGWWTGRLRGKQGLFPNNYVTKI, the abundance fitness was -0.19 ± 0.082.
Consider PQVPQCKALYAYDAQDTDELSFNAGDIIDIIKEDPSGWWTGRLRGKQGLFPNNYVTKI, for which the abundance fitness is -0.046 ± 0.041.
PQVPQCKALYAYDAQDTDELSFNAQDIIDIIKEDPSGWWTGRLRGKQGLFPNNYVTKI: the abundance fitness is -0.058 ± 0.054.
Turning to PQVPQCKALYAYDAQDTDELSFNARDIIDIIKEDPSGWWTGRLRGKQGLFPNNYVTKI, the abundance fitness is -0.142 ± 0.033.
As to PQVPQCKALYAYDAQDTDELSFNAFDIIDIIKEDPSGWWTGRLRGKQGLFPNNYVTKI, the abundance fitness was -0.302 ± 0.063.
In the case of PQVPQCKALYAYDAQDTDELSFNAWDIIDIIKEDPSGWWTGRLRGKQGLFPNNYVTKI, the abundance fitness was -0.224 ± 0.056.
As to PQVPQCKALYAYDAQDTDELSFNAADIIDIIKEDPSGWWTGRLRGKQGLFPNNYVTKI, the abundance fitness is -0.129 ± 0.054.
PQVPQCKALYAYDAQDTDELSFNAPDIIDIIKEDPSGWWTGRLRGKQGLFPNNYVTKI: the abundance fitness is -0.878 ± 0.12.
As for PQVPQCKALYAYDAQDTDELSFNANDIIEIIKEDPSGWWTGRLRGKQGLFPNNYVTKI, the abundance fitness was -0.072 ± 0.044.
Regarding PQVPQCKALYAYDAQDTDELSFNANDIIMIIKEDPSGWWTGRLRGKQGLFPNNYVTKI, the abundance fitness is -0.243 ± 0.076.
Take PQVPQCKALYAYDAQDTDELSFNANDIIAIIKEDPSGWWTGRLRGKQGLFPNNYVTKI: the abundance fitness was -0.205 ± 0.043.
Next, PQVPQCKALYAYDAQDTDELSFNANDIIIIIKEDPSGWWTGRLRGKQGLFPNNYVTKI: -0.345 ± 0.15.
For the variant PQVPQCKALYAYDAQDTDELSFNANDIIGIIKEDPSGWWTGRLRGKQGLFPNNYVTKI, the abundance fitness was -0.478 ± 0.045.
Take PQVPQCKALYAYDAQDTDELSFNANDIINIIKEDPSGWWTGRLRGKQGLFPNNYVTKI: the abundance fitness was -0.277 ± 0.098.
Take PQVPQCKALYAYDAQDTDELSFNANDIIHIIKEDPSGWWTGRLRGKQGLFPNNYVTKI: the abundance fitness was -0.193 ± 0.12.
For PQVPQCKALYAYDAQDTDELSFNANDIIKIIKEDPSGWWTGRLRGKQGLFPNNYVTKI, the abundance fitness was -0.555 ± 0.12.
As for PQVPQCKALYAYDAQDTDELSFNANDIIPIIKEDPSGWWTGRLRGKQGLFPNNYVTKI, the abundance fitness was -1.03 ± 0.41.
Consider PQVPQCKALYAYDAQDTDELSFNANDIICIIKEDPSGWWTGRLRGKQGLFPNNYVTKI, for which the abundance fitness was -0.298 ± 0.086.
For PQVPQCKALYAYDAQDTDELSFNANDIIFIIKEDPSGWWTGRLRGKQGLFPNNYVTKI, the abundance fitness was -0.408 ± 0.062.
PQVPQCKALYAYDAQDTDELSFIANDIIDIIKEDPSGWWTGRLRGKQGLFPNNYVTKI: the abundance fitness is -0.081 ± 0.03.
As to PQVPQCKALYAYDAQDTDELSFYANDIIDIIKEDPSGWWTGRLRGKQGLFPNNYVTKI, the abundance fitness was -0.155 ± 0.033.
On to PQVPQCKALYAYDAQDTDELSFMANDIIDIIKEDPSGWWTGRLRGKQGLFPNNYVTKI, for which the abundance fitness is -0.026 ± 0.047.
In the case of PQVPQCKALYAYDAQDTDELSFQANDIIDIIKEDPSGWWTGRLRGKQGLFPNNYVTKI, the abundance fitness is -0.002 ± 0.04.
Take PQVPQCKALYAYDAQDTDELSFPANDIIDIIKEDPSGWWTGRLRGKQGLFPNNYVTKI: the abundance fitness is -0.788 ± 0.041.
For the variant PQVPQCKALYAYDAQDTDELSFWANDIIDIIKEDPSGWWTGRLRGKQGLFPNNYVTKI, the abundance fitness was -0.38 ± 0.054.
Next, PQVPQCKALYAYDAQDTDELSFTANDIIDIIKEDPSGWWTGRLRGKQGLFPNNYVTKI: -0.01 ± 0.03; PQVPQCKALYAYDAQDTDELSFSANDIIDIIKEDPSGWWTGRLRGKQGLFPNNYVTKI: 0.004 ± 0.027; PQVPQCKALYAYDAQDTDELSFKANDIIDIIKEDPSGWWTGRLRGKQGLFPNNYVTKI: -0.008 ± 0.045.
For PQVPQCKALYAYDAQDTDELSFLANDIIDIIKEDPSGWWTGRLRGKQGLFPNNYVTKI, the abundance fitness is -0.065 ± 0.028.
The result for PQVPQCKALYAYDAQDTDELSFNANDILDIIKEDPSGWWTGRLRGKQGLFPNNYVTKI reads 0.237 ± 0.46; that for PQVPQCKALYAYDAQDTDELSFNANDIVDIIKEDPSGWWTGRLRGKQGLFPNNYVTKI, -0.472 ± 0.45; that for PQVPQCKALYAYDAQDTDELSFNANDITDIIKEDPSGWWTGRLRGKQGLFPNNYVTKI, -0.386 ± 0.29.
The result for PQVPQCKALYAYDAQDTDELSFNANDHIDIIKEDPSGWWTGRLRGKQGLFPNNYVTKI reads -0.306 ± 0.069; that for PQVPQCKALYAYDAQDTDELSFNANDGIDIIKEDPSGWWTGRLRGKQGLFPNNYVTKI, -0.927 ± 0.062; that for PQVPQCKALYAYDAQDTDELSFNANDDIDIIKEDPSGWWTGRLRGKQGLFPNNYVTKI, -0.618 ± 0.038.
PQVPQCKALYAYDAQDTDELSFNANDTIDIIKEDPSGWWTGRLRGKQGLFPNNYVTKI: the abundance fitness was -0.26 ± 0.074.

These data come from the Human Domainome abundance scans (Beltran et al. 2025).
